# Patent US20260166085A1 (BEAM THERAPEUTICS, published 2026)
# Numbering of substitutions follows the chain as printed.
# B1: ABTx052 variant VL_F91T (antibody, human IgG1, V domains shown)
# VH: QVQLVQSGAAVKKPGESLKISCKGSGYRFTSYWIGWVRQMPGKGLEWMGIIYPGDSDTRYSPSFQGQVTISAGKSISTAYLQWSSLKASDTAMYYCARHGRGYNGYEGAFDIWGQGTMVTVSS
# VL: AIQLTQSPSSLSASVGDRVTITCRASQGISSALAWYQQKPGKAPKLLIYDASSLESGVPSRFSGSGSGTDFTLTISSLQPEDFATYYCQQTNSYPLTFGGGTKVEIK
# B2: ABTx052 variant VL_S93G (antibody, human IgG1, V domains shown)
# VH: B1 VH
# VL: B1 VL with T91F, S93G
# B3: ABTx052 variant VL_Y94H (antibody, human IgG1, V domains shown)
# VH: B1 VH
# VL: B1 VL with T91F, Y94H
# B4: ABTx052 variant VL_N92R (antibody, human IgG1, V domains shown)
# VH: B1 VH
# VL: B1 VL with T91F, N92R
# B5: ABTx052 variant VH_G105A (antibody, human IgG1, V domains shown)
# VH: B1 VH with G105A
# VL: AIQLTQSPSSLSASVGDRVTITCRASQGISSALAWYQQKPGKAPKLLIYDASSLESGVPSRFSGSGSGTDFTLTISSLQPEDFATYYCQQFNSYPLTFGGGTKVEIKR
# B6: ABTx052 variant VH_N104D (antibody, human IgG1, V domains shown)
# VH: B1 VH with N104D
# VL: B5 VL
# B7: ABTx052 variant VL_N92Y (antibody, human IgG1, V domains shown)
# VH: B1 VH
# VL: B1 VL with T91F, N92Y
# B8: ABTx052 variant VH_R59K (antibody, human IgG1, V domains shown)
# VH: B1 VH with R59K
# VL: B5 VL
# B9: ABTx030 (antibody, V domains shown)
# VH: QVQLQESGGGLVKPGGSLRLSCAASGFTFSSYSMNWVRQAPGKGLEWVSSIGTISSYIYYADSVKGRFTISRDNAKNSLYLQMNSLRAEDTAVYYCARDYYGGLFDYWGQGTLVTVSS
# VL: not shown
# B10: ABTx202 (antibody, human IgG1, V domains shown)
# VH: EVQLVESGGGLVQPGRSLRLSCAASGFTFDDYAMHWVRQAPGKGLEWVSGISWNSGTIGYADSVKGRFTSSRDNAKNSLYLEMNSLRAEDTALYYCAKDSPPGYCSSASCYGAFDIWGQGTMVTVSS
# VL: EIVMTQSPGTLSLSPGERATLSCRASQSVSSSYLAWYQQKPGQAPRLLIYGSSTRATGIPARFSGSGSGTEFALTISSLQSEDFAVYYCQQYNFWPYTFGQGTKVEIK
# B11: ABTx205 (antibody, human IgG1, V domains shown)
# VH: B10 VH with S70N
# VL: DIVMTQSPSFLSASVGDRVTITCRASQGISSYLAWYQQKPGKAPKLLIYAASTLQNGVPSRFSGSGSGTDFTLTITSLQPEDFATYYCQQSYSTPYTFGQGTKLEIK
# B12: ABTx203 (antibody, human IgG1, V domains shown)
# VH: B10 VH with S70N, S100W, P102S, Y104F, S109Y
# VL: B11 VL
# B13: ABTx206 (antibody, human IgG1, V domains shown)
# VH: B10 VH with S70N, W117R
# VL: B11 VL
# B14: ABTx251 (antibody, human IgG1, kappa, V domains shown)
# VH: B1 VH with N104D
# VL: B5 VL with N92Y
# B15: ABTx261 (antibody, human IgG1, kappa, V domains shown)
# VH: B1 VH with R59K, N104D, G105A
# VL: B5 VL with F91T, N92R
# B16: ABTx265 (antibody, human IgG1, kappa, V domains shown)
# VH: B1 VH with R59K, N104D, E107D
# VL: B5 VL with F91T, N92R
# B17: ABTx267 (antibody, human IgG1, kappa, V domains shown)
# VH: B1 VH with R59K, N104D, G105A, E107D
# VL: B5 VL with F91T, Y94S
# B18: ABTx273 (antibody, human IgG1, kappa, V domains shown)
# VH: B1 VH with N104D
# VL: B5 VL with N92R
# B19: ABTx272 (antibody, human IgG1, kappa, V domains shown)
# VH: B1 VH with R59K, N104D, E107D
# VL: B5 VL with F91V, N92R
# B20: ABTx270 (antibody, human IgG1, kappa, V domains shown)
# VH: B1 VH with N104D, G105A
# VL: B5 VL with F91V, N92R
# B21: ABTx263 (antibody, human IgG1, kappa, V domains shown)
# VH: B1 VH with R59K, N104D, E107D
# VL: B5 VL with F91V, N92Y
# B22: ABTx256 (antibody, human IgG1, kappa, V domains shown)
# VH: B1 VH with N104D, G105A
# VL: B5 VL with F91T, N92Y
# B23: ABTx269 (antibody, human IgG1, kappa, V domains shown)
# VH: B1 VH with R59K, N104D
# VL: B5 VL with F91V, N92Y
# B24: ABTx262 (antibody, human IgG1, kappa, V domains shown)
# VH: B1 VH with N104D, G105A
# VL: B5 VL with N92R, Y94S
# B25: ABTx268 (antibody, human IgG1, kappa, V domains shown)
# VH: B1 VH with R59K, N104D
# VL: B5 VL with F91V
# B26: ABTx258 (antibody, human IgG1, kappa, V domains shown)
# VH: B1 VH with R59K, N104D, G105A
# VL: B5 VL with F91V, N92R
# Biological target: T1, Wild type CD117 purified protein (human, UniProt P10721 26-520, limits assumed)
# T1 construct: Protein used in BLI/kinetics and cryo-EM; also called wt CD117; Wt CD117
# T1 sequence (P10721 26-520 limits assumed): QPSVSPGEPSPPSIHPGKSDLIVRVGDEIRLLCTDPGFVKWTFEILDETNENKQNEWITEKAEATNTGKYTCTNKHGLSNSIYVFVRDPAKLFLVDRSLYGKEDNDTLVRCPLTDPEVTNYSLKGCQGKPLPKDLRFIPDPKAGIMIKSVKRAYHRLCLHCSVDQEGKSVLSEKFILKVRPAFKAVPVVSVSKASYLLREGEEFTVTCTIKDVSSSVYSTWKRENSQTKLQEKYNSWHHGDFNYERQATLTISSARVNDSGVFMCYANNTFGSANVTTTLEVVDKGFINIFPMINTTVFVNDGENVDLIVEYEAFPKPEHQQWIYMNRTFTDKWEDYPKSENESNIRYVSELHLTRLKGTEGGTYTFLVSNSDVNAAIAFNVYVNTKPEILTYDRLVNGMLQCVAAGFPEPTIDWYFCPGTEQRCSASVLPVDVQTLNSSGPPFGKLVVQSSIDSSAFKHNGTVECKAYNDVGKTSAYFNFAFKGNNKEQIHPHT
# Experiment: binding kinetics, FIGS. 45A-45K
Binder,Kd [nM],koff [s⁻¹],kon [M⁻¹ s⁻¹]
B1,0.191,0.000104,543000
B2,0.0716,4.81e-05,671000
B3,3.16,0.00178,563000
B4,0.683,0.000434,635000
B5,0.254,0.000153,601000
B6,0.495,0.000342,691000
B7,0.841,0.000635,755000
B8,0.986,0.000713,723000

# Biological target: T2, CC128 variant of CD117 (Y259C + N260D) purified protein (human, UniProt P10721 26-520, limits assumed)
# T2 construct: also called CC128-edited CD117 as purified protein
# T2 sequence (P10721 26-520 Y259C/N260D limits assumed): as the sequence (P10721 26-520 limits assumed) above, with Y234C, N235D counted along it
# Experiment: binding kinetics, FIGS. 45A-45K
row,Binder,binding result
1,B3,no binding
2,B4,no binding
3,B7,no binding
4,B8,no binding

# Biological target: T3, CC200 variant of CD117 (S261G) purified protein (human, UniProt P10721 26-520, limits assumed)
# T3 sequence (P10721 26-520 S261G limits assumed): as the sequence (P10721 26-520 limits assumed) above, with S236G counted along it
# Experiment: binding kinetics, FIGS. 45A-45K
row,Binder,binding result
1,B3,no binding
2,B4,no binding
3,B7,no binding
4,B8,no binding

# Biological target: T4, Cyno CD117 (cynomolgus, UniProt F6V858 26-520 (rhesus entry))
# T4 construct: also called cynomolgus CD117
# T4 sequence (chain, as listed by the source): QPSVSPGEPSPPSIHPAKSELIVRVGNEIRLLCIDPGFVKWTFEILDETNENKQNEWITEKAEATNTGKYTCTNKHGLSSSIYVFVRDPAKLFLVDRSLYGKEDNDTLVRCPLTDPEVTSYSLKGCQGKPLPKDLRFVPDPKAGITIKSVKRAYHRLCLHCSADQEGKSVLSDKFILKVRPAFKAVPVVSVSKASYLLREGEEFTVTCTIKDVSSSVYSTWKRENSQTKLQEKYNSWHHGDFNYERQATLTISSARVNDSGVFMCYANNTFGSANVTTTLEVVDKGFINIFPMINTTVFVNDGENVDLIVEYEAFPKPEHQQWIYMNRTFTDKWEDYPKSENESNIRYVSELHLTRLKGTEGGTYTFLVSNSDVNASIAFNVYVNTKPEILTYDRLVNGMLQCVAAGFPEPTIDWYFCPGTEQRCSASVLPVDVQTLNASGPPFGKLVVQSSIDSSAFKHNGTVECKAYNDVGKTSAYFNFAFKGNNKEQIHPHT
# Experiment: KD, method not stated (Table 8B)
row,Binder,Kd [nM]
1,B9,0.83

# Biological target: T1, Wild type CD117 purified protein
# Experiment: KD, method not stated (Table 8B)
row,Binder,Kd [nM]
1,B9,0.449

# Biological target: T1, Wild type CD117 purified protein
# Experiment: summary Table 75 (repeats Table 71)
row,Binder,Kd [nM]
1,B10,2.42
2,B11,2.07
3,B12,6.62
4,B13,1.26

# Biological target: T5, Wild type CD117 expressed on cells (M07e cells, unedited human CD34+ HSPCs) (human, UniProt P10721 26-976)
# T5 construct: Endogenous receptor on cells; also called wtCD117; WT CD117
# T5 sequence (P10721 26-976 limits assumed): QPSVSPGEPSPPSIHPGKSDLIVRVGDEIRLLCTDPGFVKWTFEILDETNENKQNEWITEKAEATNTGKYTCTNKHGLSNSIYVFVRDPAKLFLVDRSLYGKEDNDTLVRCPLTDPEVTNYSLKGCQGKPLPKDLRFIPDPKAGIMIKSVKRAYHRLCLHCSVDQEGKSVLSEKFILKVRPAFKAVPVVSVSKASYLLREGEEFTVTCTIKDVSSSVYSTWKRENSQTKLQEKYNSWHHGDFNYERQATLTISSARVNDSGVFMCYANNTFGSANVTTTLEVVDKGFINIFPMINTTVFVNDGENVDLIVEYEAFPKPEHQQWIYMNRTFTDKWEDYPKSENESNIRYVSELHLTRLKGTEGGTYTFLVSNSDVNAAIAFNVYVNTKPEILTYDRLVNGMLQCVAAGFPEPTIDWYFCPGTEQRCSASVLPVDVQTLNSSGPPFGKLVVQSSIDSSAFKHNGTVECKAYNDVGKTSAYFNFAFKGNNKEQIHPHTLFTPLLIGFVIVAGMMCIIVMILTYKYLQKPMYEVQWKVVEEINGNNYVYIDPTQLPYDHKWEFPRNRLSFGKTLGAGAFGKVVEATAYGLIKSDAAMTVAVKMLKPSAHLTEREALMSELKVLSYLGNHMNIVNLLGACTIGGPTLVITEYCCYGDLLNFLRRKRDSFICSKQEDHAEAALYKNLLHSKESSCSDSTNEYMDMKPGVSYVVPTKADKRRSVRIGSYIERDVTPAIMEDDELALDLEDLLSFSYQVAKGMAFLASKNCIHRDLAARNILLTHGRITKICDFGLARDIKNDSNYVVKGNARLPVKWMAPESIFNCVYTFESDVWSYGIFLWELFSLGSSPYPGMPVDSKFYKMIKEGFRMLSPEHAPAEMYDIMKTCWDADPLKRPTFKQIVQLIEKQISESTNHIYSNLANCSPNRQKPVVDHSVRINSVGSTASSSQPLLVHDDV
# Experiment: summary Table 75 (repeats Table 73)
row,Binder,EC50 [nM]
1,B10,7.98
2,B11,7.48
3,B12,5.56
4,B13,14.2

# Biological target: T2, CC128 variant of CD117 (Y259C + N260D) …
# Experiment: binding kinetics grade, FIGS. 55A-55C
row,Binder,binding result
1,B14,no binding
2,B15,no binding
3,B16,no binding
4,B17,no binding
5,B18,no binding
6,B19,no binding
7,B20,no binding
8,B21,no binding
9,B22,no binding
10,B23,no binding
11,B24,no binding
12,B25,no binding
13,B26,no binding

# Biological target: T3, CC200 variant of CD117 (S261G) purified …
# Experiment: binding kinetics grade, FIGS. 55A-55C
row,Binder,binding result
1,B14,no binding
2,B15,no binding
3,B16,no binding
4,B17,no binding
5,B18,no binding
6,B19,no binding
7,B20,no binding
8,B21,no binding
9,B22,no binding
10,B23,no binding
11,B24,no binding
12,B25,no binding
13,B26,no binding

# Biological target: T1, Wild type CD117 purified protein
# Experiment: monovalent KD, CD117 titrated (FIGS. 73A-73E)
Binder,Kd [nM],koff [s⁻¹],kon [M⁻¹ s⁻¹]
B10,2.42,0.00014,57800
B11,2.07,0.000117,56600
B12,6.62,0.000643,97100
B13,1.26,5.07e-05,40300

# Biological target: T5, Wild type CD117 expressed on cells …
# Experiment: flow cytometry on M07e cells, AF647 secondary (FIG. 76A)
row,Binder,EC50 [nM]
1,B10,7.98
2,B11,7.48
3,B12,5.56
4,B13,14.2
